For one sequence, koff results are on record in patent US5652340.

The series concerns the target T1, SATB1 80 kDa deltaSATB1 (bacterially produced) (Homo sapiens) (UniProt Q01826).
T1 sequence: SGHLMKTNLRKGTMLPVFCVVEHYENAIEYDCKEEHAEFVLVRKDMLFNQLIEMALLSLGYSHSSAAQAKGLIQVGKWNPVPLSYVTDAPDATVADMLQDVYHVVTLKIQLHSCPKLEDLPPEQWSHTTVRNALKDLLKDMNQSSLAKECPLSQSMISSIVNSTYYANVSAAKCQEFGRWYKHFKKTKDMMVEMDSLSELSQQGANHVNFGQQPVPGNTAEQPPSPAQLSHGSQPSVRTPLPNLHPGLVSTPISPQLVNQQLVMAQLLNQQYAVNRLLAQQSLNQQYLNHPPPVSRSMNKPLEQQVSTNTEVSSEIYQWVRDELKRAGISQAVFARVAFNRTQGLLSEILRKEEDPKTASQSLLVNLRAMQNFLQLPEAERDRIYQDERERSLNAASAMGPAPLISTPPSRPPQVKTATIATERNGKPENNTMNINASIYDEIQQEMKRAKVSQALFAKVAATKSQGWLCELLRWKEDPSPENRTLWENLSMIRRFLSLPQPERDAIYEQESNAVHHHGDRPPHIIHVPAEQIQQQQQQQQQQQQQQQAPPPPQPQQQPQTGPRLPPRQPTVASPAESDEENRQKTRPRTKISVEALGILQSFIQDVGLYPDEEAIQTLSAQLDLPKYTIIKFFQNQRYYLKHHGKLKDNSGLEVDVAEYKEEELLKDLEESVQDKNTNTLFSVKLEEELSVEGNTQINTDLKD
In words: EMSA. In general terms: Mobility shift assays separate free from complexed probe on a gel.

For “TCTTTAATTTCTAATATATTTAGAATTC (double strand) [wild-type (25)2]”, the off-rate constant (koff) – broadly, the first-order rate constant of dissociation – was 0.0167 s⁻¹.
